Kd data for 1 molecule are collected here from article PMC4169579 (2014).

Positions of bridges follow the written chain, without caps; N, C: chain ends. No end group written: not given here.

The assay deals with Prostate-specific antigen (PSA or kallikrein-related peptidase-3, KLK3), major form of active PSA (isoform … (human, UniProt P07288 25-261)). The assay can be described thus: SPR.
Prostate-specific antigen (PSA or kallikrein-related peptidase-3, KLK3), major form of active PSA (isoform …, sequence (P07288 25-261): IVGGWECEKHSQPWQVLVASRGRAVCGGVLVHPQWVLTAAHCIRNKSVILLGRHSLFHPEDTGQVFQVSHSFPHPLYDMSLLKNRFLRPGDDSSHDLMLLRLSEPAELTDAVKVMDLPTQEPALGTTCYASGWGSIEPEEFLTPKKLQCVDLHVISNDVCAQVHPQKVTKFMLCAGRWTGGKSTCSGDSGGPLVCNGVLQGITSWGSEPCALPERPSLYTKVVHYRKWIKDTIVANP

B1: 12-amino acid cyclic peptide B2 (without C-terminal amidation) (peptide)
peptide: CVFAHNYDYLVC-OH
modifications: disulfide 1-12; N-terminus assumed
SMILES: CC(C)C[C@@H]1NC(=O)[C@H](Cc2ccc(O)cc2)NC(=O)[C@H](CC(=O)O)NC(=O)[C@H](Cc2ccc(O)cc2)NC(=O)[C@H](CC(N)=O)NC(=O)[C@H](Cc2c[nH]cn2)NC(=O)[C@H](C)NC(=O)[C@H](Cc2ccccc2)NC(=O)[C@H](C(C)C)NC(=O)[C@@H](N)CSSC[C@@H](C(=O)O)NC(=O)[C@H](C(C)C)NC1=O
The molecule B1 registered a Kd of 56.1 µM.
